Experimental findings from patent US20120100140A1 are described below.

Assay [1] concerns the target CD64 (FcγRI) (UniProt P12314). Put plainly: solution affinity SPR: antibody titrated into CD64, inhibition of CD64 binding to immobilized IgG1 MAb; average of two titrations.
The next assay addresses CD16 (FcγRIIIa V158) (UniProt P08637). As to the kind of experiment: solution affinity SPR: antibody titrated into CD16, inhibition of CD16 binding to immobilized IgG1 MAb; average of two titrations.
The target of assay [2] is CD64 (FcγRI) (UniProt P12314). As to the kind of experiment: solution affinity SPR: inhibition of CD64 binding to immobilized IgG1 MAb.
Chain of CD64 (FcγRI) (P12314 16-288 limits assumed): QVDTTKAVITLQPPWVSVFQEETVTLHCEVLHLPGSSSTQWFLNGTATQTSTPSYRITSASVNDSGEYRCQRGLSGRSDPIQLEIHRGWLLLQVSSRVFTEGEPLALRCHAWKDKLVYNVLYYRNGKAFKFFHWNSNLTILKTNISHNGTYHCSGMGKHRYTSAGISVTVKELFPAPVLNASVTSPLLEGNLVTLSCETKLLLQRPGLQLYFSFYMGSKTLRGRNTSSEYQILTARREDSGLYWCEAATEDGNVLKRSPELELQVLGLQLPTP

Chain of CD16 (FcγRIIIa V158) (P08637 17-208 F176V limits assumed): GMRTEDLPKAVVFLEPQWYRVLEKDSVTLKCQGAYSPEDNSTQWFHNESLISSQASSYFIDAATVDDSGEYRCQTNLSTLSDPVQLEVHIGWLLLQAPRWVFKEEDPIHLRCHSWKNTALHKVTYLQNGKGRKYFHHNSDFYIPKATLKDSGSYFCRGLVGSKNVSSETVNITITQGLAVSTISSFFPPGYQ

B1: YC403 (hu5c8 aglycosylated IgG4.P S228P, T299A, T307P, L309K, D399S) (antibody)
heavy: QVQLVQSGAEVVKPGASVKLSCKASGYIFTSYYMYWVKQAPGQGLEWIGEINPSNGDTNFNEKFKSKATLTVDKSASTAYMELSSLRSEDTAVYYCTRSDGRNDMDSWGQGTLVTVSSASTKGPSVFPLAPCSRSTSESTAALGCLVKDYFPEPVTVSWNSGALTSGVHTFPAVLQSSGLYSLSSVVTVPSSSLGTKTYTCNVDHKPSNTKVDKRVESKYGPPCPPCPAPEFLGGPSVFLFPPKPKDTLMISRTPEVTCVVVDVSQEDPEVQFNWYVDGVEVHNAKTKPREEQFNSAYRVVSVLPVKHQDWLNGKEYKCKVSNKGLPSSIEKTISKAKGQPREPQVYTLPPSQEEMTKNQVSLTCLVKGFYPSDIAVEWESNGQPENNYKTTPPVLSSDGSFFLYSRLTVDKSRWQEGNVFSCSVMHEALHNHYTQKSLSLSLG
light: DIVLTQSPATLSVSPGERATISCRASQRVSSSTYSYMHWYQQKPGQPPKLLIKYASNLESGVPARFSGSGSGTDFTLTISSVEPEDFATYYCQHSWEIPPTFGGGTKLEIKRTVAAPSVFIFPPSDEQLKSGTASVVCLLNNFYPREAKVQWKVDNALQSGNSQESVTEQDSKDSTYSLSSTLTLSKADYEKHKVYACEVTHQGLSSPVTKSFNRGEC
modifications: chain 1 pos 1: N-terminal Gln largely converted to pyroglutamate, written Q; Fc aglycosylated
Take B1: the IC50 in the assay with CD64 (FcγRI) [1] came to 434 µM.

B2: YC401 (hu5c8 aglycosylated IgG4.P S228P, T299A, T307P, D399S) (antibody)
heavy: QVQLVQSGAEVVKPGASVKLSCKASGYIFTSYYMYWVKQAPGQGLEWIGEINPSNGDTNFNEKFKSKATLTVDKSASTAYMELSSLRSEDTAVYYCTRSDGRNDMDSWGQGTLVTVSSASTKGPSVFPLAPCSRSTSESTAALGCLVKDYFPEPVTVSWNSGALTSGVHTFPAVLQSSGLYSLSSVVTVPSSSLGTKTYTCNVDHKPSNTKVDKRVESKYGPPCPPCPAPEFLGGPSVFLFPPKPKDTLMISRTPEVTCVVVDVSQEDPEVQFNWYVDGVEVHNAKTKPREEQFNSAYRVVSVLPVLHQDWLNGKEYKCKVSNKGLPSSIEKTISKAKGQPREPQVYTLPPSQEEMTKNQVSLTCLVKGFYPSDIAVEWESNGQPENNYKTTPPVLSSDGSFFLYSRLTVDKSRWQEGNVFSCSVMHEALHNHYTQKSLSLSLG
light: DIVLTQSPATLSVSPGERATISCRASQRVSSSTYSYMHWYQQKPGQPPKLLIKYASNLESGVPARFSGSGSGTDFTLTISSVEPEDFATYYCQHSWEIPPTFGGGTKLEIKRTVAAPSVFIFPPSDEQLKSGTASVVCLLNNFYPREAKVQWKVDNALQSGNSQESVTEQDSKDSTYSLSSTLTLSKADYEKHKVYACEVTHQGLSSPVTKSFNRGEC
modifications: chain 1 pos 1: N-terminal Gln largely converted to pyroglutamate, written Q; Fc aglycosylated
With B2, in the assay with CD64 (FcγRI) [1], the IC50 turned out to be 377 µM.

B3: EC331 (hu5c8 aglycosylated IgG4.P T299K, T307P with IgG1 CH3) (antibody)
heavy: QVQLVQSGAEVVKPGASVKLSCKASGYIFTSYYMYWVKQAPGQGLEWIGEINPSNGDTNFNEKFKSKATLTVDKSASTAYMELSSLRSEDTAVYYCTRSDGRNDMDSWGQGTLVTVSSASTKGPSVFPLAPCSRSTSESTAALGCLVKDYFPEPVTVSWNSGALTSGVHTFPAVLQSSGLYSLSSVVTVPSSSLGTKTYTCNVDHKPSNTKVDKRVESKYGPPCPPCPAPEFLGGPSVFLFPPKPKDTLMISRTPEVTCVVVDVSQEDPEVQFNWYVDGVEVHNAKTKPREEQFNSKYRVVSVLPVLHQDWLNGKEYKCKVSNKGLPSSIEKTISKAKGQPREPQVYTLPPSRDELTKNQVSLTCLVKGFYPSDIAVEWESNGQPENNYKTTPPVLDSDGSFFLYSKLTVDKSRWQQGNVFSCSVMHEALHNHYTQKSLSLSPG
light: DIVLTQSPATLSVSPGERATISCRASQRVSSSTYSYMHWYQQKPGQPPKLLIKYASNLESGVPARFSGSGSGTDFTLTISSVEPEDFATYYCQHSWEIPPTFGGGTKLEIKRTVAAPSVFIFPPSDEQLKSGTASVVCLLNNFYPREAKVQWKVDNALQSGNSQESVTEQDSKDSTYSLSSTLTLSKADYEKHKVYACEVTHQGLSSPVTKSFNRGEC
modifications: chain 1 pos 1: N-terminal Gln largely converted to pyroglutamate, written Q; Fc aglycosylated
In the assay with CD64 (FcγRI) [1], B3 registered an IC50 of 2600 µM.

B4: EC326 (hu5c8 IgG4.P S228P, T307P, L309K, D399S, glycosylated) (antibody)
heavy: QVQLVQSGAEVVKPGASVKLSCKASGYIFTSYYMYWVKQAPGQGLEWIGEINPSNGDTNFNEKFKSKATLTVDKSASTAYMELSSLRSEDTAVYYCTRSDGRNDMDSWGQGTLVTVSSASTKGPSVFPLAPCSRSTSESTAALGCLVKDYFPEPVTVSWNSGALTSGVHTFPAVLQSSGLYSLSSVVTVPSSSLGTKTYTCNVDHKPSNTKVDKRVESKYGPPCPPCPAPEFLGGPSVFLFPPKPKDTLMISRTPEVTCVVVDVSQEDPEVQFNWYVDGVEVHNAKTKPREEQFNSTYRVVSVLPVKHQDWLNGKEYKCKVSNKGLPSSIEKTISKAKGQPREPQVYTLPPSQEEMTKNQVSLTCLVKGFYPSDIAVEWESNGQPENNYKTTPPVLSSDGSFFLYSRLTVDKSRWQEGNVFSCSVMHEALHNHYTQKSLSLSLG
light: DIVLTQSPATLSVSPGERATISCRASQRVSSSTYSYMHWYQQKPGQPPKLLIKYASNLESGVPARFSGSGSGTDFTLTISSVEPEDFATYYCQHSWEIPPTFGGGTKLEIKRTVAAPSVFIFPPSDEQLKSGTASVVCLLNNFYPREAKVQWKVDNALQSGNSQESVTEQDSKDSTYSLSSTLTLSKADYEKHKVYACEVTHQGLSSPVTKSFNRGEC
modifications: heavy chain pos 1: Gln largely converted to pyroglutamate (Table 3.3), written Q; N-linked glycan (G0F, G1F, G2F, G0) at EU N297 = heavy chain pos 295
Regarding B4, the results for the IC50 in the assay with CD16 (FcγRIIIa V158), in the assay with CD64 (FcγRI) [1] and with CD64 (FcγRI) [2] were 380 µM, 7.56 µM and 8 µM, respectively.
